Measurements taken from article PMC9138216.

Molecular target: Bacillus pumilus bilirubin oxidase (Bacillus pumilus)
Assay: crystal structure; X-ray, 3.5 Å; crystals grown at 20 °C in 0.1 M sodium citrate pH 5.5, 20% PEG 3000; dimer interface analysed with PDBePISA

Substance “Bacillus pumilus bilirubin oxidase (enzyme)” has a stoichiometry N of 2.
